The source of these data is publication doi:10.1101/2024.10.10.617623, “Deep mutational scanning identifies variants of Cas1 and Cas2 that increase spacer acquisition in type II-A CRISPR-Cas systems” (bioRxiv, 2024).

Assay [1] deals with T1, Streptococcus pyogenes type II-A Cas1 (wild type) (Streptococcus pyogenes, UniProt Q99ZW1 1-289).
T1 construct: Cas1 of the Streptococcus pyogenes (SF370) type II-A CRISPR-Cas system; I surmise that one is the wild type; also called wt; source: E. coli Rosetta 2(DE3) BL21, purified (Ni-NTA, SUMO protease, HiTrap Heparin, Superdex 200)
T1 sequence (looked up): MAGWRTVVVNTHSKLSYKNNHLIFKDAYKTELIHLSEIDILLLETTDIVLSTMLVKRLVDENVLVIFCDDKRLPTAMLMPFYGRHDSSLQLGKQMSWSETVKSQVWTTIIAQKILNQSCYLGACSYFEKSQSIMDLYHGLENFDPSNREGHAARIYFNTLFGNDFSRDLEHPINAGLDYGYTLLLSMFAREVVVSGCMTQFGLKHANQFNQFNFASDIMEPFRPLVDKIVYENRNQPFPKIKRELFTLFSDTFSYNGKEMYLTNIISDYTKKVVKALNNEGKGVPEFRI
In words: SEC; analytical SEC on Superdex 200 Increase 10/300 GL in SEC buffer (20 mM HEPES pH 7.5, 500 mM NaCl, 5% v/v glycerol, 5 mM DTT) at 4 °C; Cas1 variant 15.0 uM (2 equiv.) mixed with Cas2 7.5 uM, incubated 1 h at 4 °C before injection; fractions on SDS-PAGE, Coomassie. The settings on record: both partners purified. For orientation: SEC sorts molecules by how far they enter the pores of the column.

Assay [2] has as its target T2, Streptococcus pyogenes type II-A Cas1 R5A (Streptococcus pyogenes, UniProt Q99ZW1 1-289, R5A).
T2 construct: Cas1 of the Streptococcus pyogenes (SF370) type II-A CRISPR-Cas system with R5A; source: E. coli Rosetta 2(DE3) BL21, purified (Ni-NTA, SUMO protease, HiTrap Heparin, Superdex 200)
T2 sequence (looked up): T1 sequence (looked up) with R5A
The assay is described as above. The settings on record: both partners purified.

Where a chain is given by its changes, count along the chain named.

B1: Streptococcus pyogenes type II-A Cas2 (natural protein, UniProt Q99ZW0 1-113, looked up)
chain: MSYRYMRMILMFDMPTDTAEERKAYRKFRKFLLSEGFIMHQFSIYSKLLLNNTANNAMIGRLREHNPNKGNITLLTVTEKQFARMIYLHGERNNCIANSDERLVFLGEAFDES
notes: Cas2 of the Streptococcus pyogenes (SF370) type II-A CRISPR-Cas system; source: E. coli Rosetta 2(DE3) BL21, purified (Ni-NTA, SUMO protease, HiTrap Heparin, Superdex 200)
As to B1, the binding result in assay [1] and in assay [2] was “binds” in each case.
